Here are results for seven molecules from US20260242488A1 (BIOTHEUS, published 2026).

This assay deals with monkey c-Met (recombinant protein) (monkey). As to the kind of experiment: BLI (ForteBio), antibody on AHQ sensor, monkey c-Met in solution, 1:1 model.

The term Kd denotes the free concentration of one partner at which half of the binding sites on the other are occupied at equilibrium, for simple one-to-one binding. As a reminder, the koff is the rate constant with which the complex falls apart. In general, kon refers to the second-order rate constant of association.

B1: anti-c-Met single-arm antibody 223 (antibody, human IgG1, kappa, L234A L235A)
heavy: not shown
light: DIQLTQSPSSLSASVGDRVTITCRASQSIITYLNWYQQKPGKAPKLLIYAASSLQSGVPSRFSGSGSGTDFTLNISSLQPEDFATYYCQQANSLPYTFGQGTKVEIKRTVAAPSVFIFPPSDEQLKSGTASVVCLLNNFYPREAKVQWKVDNALQSGNSQESVTEQDSKDSTYSLSSTLTLSKADYEKHKVYACEVTHQGLSSPVTKSFNRGEC
chain: not shown
notes: made in Expi-CHO
As for B1, the Kd was 16.2 nM, the koff was found to be 0.00109 s⁻¹ and the kon came out at 67300 M⁻¹ s⁻¹.

B2: anti-c-Met single-arm antibody 221 (antibody, human IgG1, kappa, L234A L235A)
heavy: not shown
light: EIVLTQSPGTLSLSPGERATLSCRASQSVSSSYLAWYQQKPGQAPRLLIYGPSSRATGIPDRFSGSGSGTDFTLTISSLQPADFASYYCQQSYITPYTFGQGTKVEIKRTVAAPSVFIFPPSDEQLKSGTASVVCLLNNFYPREAKVQWKVDNALQSGNSQESVTEQDSKDSTYSLSSTLTLSKADYEKHKVYACEVTHQGLSSPVTKSFNRGEC
chain: not shown
notes: made in Expi-CHO
Take B2: the Kd came to 63.8 nM, the koff was 0.00192 s⁻¹ and the kon was 30100 M⁻¹ s⁻¹.

B3: anti-c-Met single-arm antibody 23 (antibody, human IgG1, kappa, L234A L235A)
heavy: not shown
light: DIVMTQSPSSLSASVGDRVTITCRASQSFSDYLNWYRQKPGKAPKLLLFAASSLQSGVPSRFSGSGSGTDFTLTISSLQPEDFATYYCQQSYSPPYTFGQGTKLEIKRTVAAPSVFIFPPSDEQLKSGTASVVCLLNNFYPREAKVQWKVDNALQSGNSQESVTEQDSKDSTYSLSSTLTLSKADYEKHKVYACEVTHQGLSSPVTKSFNRGEC
chain: not shown
notes: made in Expi-CHO
Take B3: the Kd was found to be 26.5 nM, the koff is 0.00151 s⁻¹ and the kon turned out to be 56900 M⁻¹ s⁻¹.

B4: anti-c-Met single-arm antibody 22 (antibody, human IgG1, kappa, L234A L235A)
heavy: not shown
light: DIVMTQSPSSVSASVGDRVTITCRASQGISSWLAWYQQKPGKAPKLLIYAASSLQSGVPSKFSGSGSGTEFTLTISSLQPEDFATYFCQQAYGFPLTFGGGTKVEIKRTVAAPSVFIFPPSDEQLKSGTASVVCLLNNFYPREAKVQWKVDNALQSGNSQESVTEQDSKDSTYSLSSTLTLSKADYEKHKVYACEVTHQGLSSPVTKSFNRGEC
chain: not shown
notes: made in Expi-CHO
Turning to B4, the Kd was 19 nM, the koff worked out at 0.00259 s⁻¹ and the association rate constant (kon) came to 136000 M⁻¹ s⁻¹.

B5: anti-c-Met single-arm antibody 74 (antibody, human IgG1, kappa, L234A L235A)
heavy: not shown
light: DIVMTQSPSSVSASVGDRVTITCRASQGINSWLAWYQQKPGKAPNLLIYAASSLQSGVPSRFSGRGSGTDFSLTISSLHPEDFATYYCQQAKGFPLTFGGGTKVEIKRTVAAPSVFIFPPSDEQLKSGTASVVCLLNNFYPREAKVQWKVDNALQSGNSQESVTEQDSKDSTYSLSSTLTLSKADYEKHKVYACEVTHQGLSSPVTKSFNRGEC
chain: not shown
notes: made in Expi-CHO
For the molecule B5, the Kd was 9.7 nM, the koff was 0.0026 s⁻¹ and the kon is 269000 M⁻¹ s⁻¹.

B6: anti-c-Met single-arm antibody 187 (antibody, human IgG1, kappa, L234A L235A)
heavy: not shown
light: DIVMTQSPSSVSASVGDRVTITCRASQGISSWLAWYQQKPGKAPNLLIYAASNLPSGVPSRFSGSGSGTVFTLTISSLQPEDFATYYCQQSNSFPLTFGGGTKVEIKRTVAAPSVFIFPPSDEQLKSGTASVVCLLNNFYPREAKVQWKVDNALQSGNSQESVTEQDSKDSTYSLSSTLTLSKADYEKHKVYACEVTHQGLSSPVTKSFNRGEC
chain: not shown
notes: made in Expi-CHO
Turning to B6, the dissociation constant Kd worked out at 2.92 nM, the koff worked out at 0.000947 s⁻¹ and the kon amounted to 324000 M⁻¹ s⁻¹.

B7: anti-c-Met single-arm antibody 136 (antibody, human IgG1, kappa, L234A L235A)
heavy: not shown
light: DIVMTQSPSSVSASVGDRVTITCRASQGISSWLAWYQQKPGKAPKLLIYAVSSLQSGVPSRFSGSGSGTDFTLTISSLQPEDFATYFCQQANSFPLTFGGGTKVEIKRTVAAPSVFIFPPSDEQLKSGTASVVCLLNNFYPREAKVQWKVDNALQSGNSQESVTEQDSKDSTYSLSSTLTLSKADYEKHKVYACEVTHQGLSSPVTKSFNRGEC
chain: not shown
notes: made in Expi-CHO
With B7, the Kd was determined as 1.16 nM, the off-rate constant (koff) was found to be 0.000426 s⁻¹ and the on-rate constant (kon) is 369000 M⁻¹ s⁻¹.
